According to article PMC11503491:

Biological target: SARS-CoV-2 RBD (RWT), wild-type Wuhan Hu-1 receptor-binding domain, residues 319-533 (SARS-CoV-2 Wuhan Hu-1)
Assay: BLI

koff: 0.0025 s⁻¹
B1: COVA2-15 (class 2 RBD-directed antibody) (antibody, V domains shown)
VH: QVQLLESGGGLVQPGGSLRLSCAASGFTFSSYAMSWVRQAPGKGLEWASAISGSGGSTYYADSVEGRFTISRDNSKNTLYLQMNSLRAEDTAVYYCAKDTGYCGDDCYIKLIRGGPDYWGQGTLVTVSS
VL: DIVMTQSPLSLPVTLGQPASISCRSSQSLVYSDGNTFLNWFQQRPGQSPRRLIYQVSNRDSGVPDRFSGSGSGTDFTLKISRVEAEDVGVYYCMQGTHWPRTFGQGTKLEIK
